Numbered stars: 1 amine (or outer) side, 2 acyl side, 3 side chain; on linkers, the order of the positions; unused ones are H or OH. Bridge positions count the residues as written; N and C are the ends. Square brackets hold non-standard residues; d marks the D form. Ends that are not written are not given here. * marks the point of attachment. X10 = (2R)‑2‑amino‑3‑(trifluoromethylsulfanyl)propanoic acid, O=C([C@H](CSC(F)(F)F)N[*:1])[*:2]; X15 = (3S)‑2‑azaspiro(4.4)nonane‑3‑carboxylic acid, O=C([C@@H]1CC2(CCCC2)CN1[*:1])[*:2]; (R)‑Pyrrolidine‑3‑acetic acid = O=C(C[C@H]1CCN([*:1])C1)[*:2]; X5 = Tetrahydropyranyl‑4‑acetic acid, O=C(CC1CCOCC1)*; Oic = O=C(O)[C@@H]1C[C@@H]2CCCC[C@@H]2N1; βPro(3R) = O=C([C@@H]1CCN([*:1])C1)[*:2]; tBuAla = CC(C)(C)C[C@H](N)C(=O)O; Aad = N[C@@H](CCCC(=O)O)C(=O)O; Pen = CC(C)(S)[C@H](N)C(=O)O; NMeC = CN[C@@H](CS)C(=O)O; NPhGly = O=C(O)CNc1ccccc1; Orn = NCCC[C@H](N)C(=O)O; Abu = CC[C@H](N)C(=O)O; βAla = NCCC(=O)O; Sar = CNCC(=O)O
T1: recombinant rat MASP1 active protease (amino acids 302-704, C-terminal His Tag) (rat, UniProt Q8CHN8 302-704)
T1 sequence: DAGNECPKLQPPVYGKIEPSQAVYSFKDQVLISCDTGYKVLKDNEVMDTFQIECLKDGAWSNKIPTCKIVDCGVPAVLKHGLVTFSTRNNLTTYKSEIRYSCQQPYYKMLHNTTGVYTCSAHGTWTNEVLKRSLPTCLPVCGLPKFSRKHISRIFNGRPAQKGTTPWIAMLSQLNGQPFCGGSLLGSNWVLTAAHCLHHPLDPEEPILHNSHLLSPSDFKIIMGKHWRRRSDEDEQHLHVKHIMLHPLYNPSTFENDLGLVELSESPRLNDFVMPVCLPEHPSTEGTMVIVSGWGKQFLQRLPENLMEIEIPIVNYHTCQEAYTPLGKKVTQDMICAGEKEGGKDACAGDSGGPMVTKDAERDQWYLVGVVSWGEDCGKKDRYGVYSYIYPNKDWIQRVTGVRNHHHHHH

T2: recombinant human MASP1 active protease (amino acids 297-699, C-terminal His Tag) (human, UniProt P48740 297-699)
T2 sequence: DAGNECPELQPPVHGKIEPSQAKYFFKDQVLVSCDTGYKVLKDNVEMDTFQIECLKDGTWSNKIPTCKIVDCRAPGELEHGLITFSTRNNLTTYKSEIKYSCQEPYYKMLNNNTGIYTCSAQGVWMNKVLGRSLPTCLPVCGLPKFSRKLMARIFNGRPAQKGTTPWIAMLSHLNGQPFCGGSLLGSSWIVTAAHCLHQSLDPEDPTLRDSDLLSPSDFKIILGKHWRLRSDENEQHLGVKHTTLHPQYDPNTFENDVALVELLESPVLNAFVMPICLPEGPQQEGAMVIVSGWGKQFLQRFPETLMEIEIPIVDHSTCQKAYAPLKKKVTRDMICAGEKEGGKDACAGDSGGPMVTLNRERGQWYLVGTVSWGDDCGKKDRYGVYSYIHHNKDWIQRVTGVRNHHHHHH


Legend:
Assay in all cases: cell-based or functional assay
[1] = biological target: T1, recombinant rat MASP1 active protease …
[2] = biological target: recombinant rat MASP2 active protease (amino acids 296-685, C-terminal His Tag) (rat, UniProt Q9JJS8 296-685)
recombinant rat MASP2 active protease (amino acids 296-685, C-terminal His Tag), sequence (Q9JJS8 other isoform, or with tags, fused parts or gaps limits assumed): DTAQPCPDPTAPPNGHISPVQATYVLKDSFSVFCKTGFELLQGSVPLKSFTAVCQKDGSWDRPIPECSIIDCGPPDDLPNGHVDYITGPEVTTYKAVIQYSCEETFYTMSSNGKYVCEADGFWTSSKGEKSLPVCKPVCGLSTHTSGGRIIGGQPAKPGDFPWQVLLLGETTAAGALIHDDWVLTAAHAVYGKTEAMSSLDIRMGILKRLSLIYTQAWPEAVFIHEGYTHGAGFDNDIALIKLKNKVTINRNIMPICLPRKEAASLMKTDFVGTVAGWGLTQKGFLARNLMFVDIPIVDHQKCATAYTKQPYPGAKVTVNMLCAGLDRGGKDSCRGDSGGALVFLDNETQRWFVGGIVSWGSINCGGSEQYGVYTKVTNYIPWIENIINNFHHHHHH

[3] = biological target: T2, recombinant human MASP1 active protease …
[4] = biological target: recombinant human MASP2 active protease (amino acids 297-686, C-terminal His Tag) (human, UniProt O00187 297-686)
recombinant human MASP2 active protease (amino acids 297-686, C-terminal His Tag), sequence (O00187 other isoform, or with tags, fused parts or gaps limits assumed): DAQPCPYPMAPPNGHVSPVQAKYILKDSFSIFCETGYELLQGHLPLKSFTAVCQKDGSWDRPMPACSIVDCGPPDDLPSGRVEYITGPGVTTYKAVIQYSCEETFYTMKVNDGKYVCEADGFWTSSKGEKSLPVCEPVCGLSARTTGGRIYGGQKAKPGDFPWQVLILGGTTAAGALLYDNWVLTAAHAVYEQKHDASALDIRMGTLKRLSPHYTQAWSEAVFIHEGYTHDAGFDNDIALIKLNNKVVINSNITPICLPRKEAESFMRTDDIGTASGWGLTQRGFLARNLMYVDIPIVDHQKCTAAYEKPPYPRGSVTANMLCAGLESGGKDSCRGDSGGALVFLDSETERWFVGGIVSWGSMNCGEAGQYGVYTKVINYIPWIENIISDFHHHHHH

rat MASP1 IC50 [1] [nM] | rat MASP2 IC50 [2] [nM] | human MASP1 IC50 [3] [nM] | human MASP2 IC50 [4] [nM] | Binder
730 | 100 |  |  | [Orn]ICSRS[X10]PPI[Pen]IPD-OH (disulfide 3-11; N-terminus assumed; SMILES CC[C@H](C)[C@H](NC(=O)[C@@H](N)CCCN)C(=O)N[C@H]1CSSC(C)(C)[C@@H](C(=O)N[C@H](C(=O)N2CCC[C@H]2C(=O)N[C@@H](CC(=O)O)C(=O)O)[C@@H](C)CC)NC(=O)[C@H]([C@@H](C)CC)NC(=O)[C@@H]2CCCN2C(=O)[C@@H]2CCCN2C(=O)[C@H](CSC(F)(F)F)NC(=O)[C@H](CO)NC(=O)[C@H](CCCNC(=N)N)NC(=O)[C@H](CO)NC1=O) [Example 529: (Orn)-IC+SRS-((2R)-2-amino-3-(trifluoromethylsulfanyl)propanoic acid)-PPI-(Pen)+IPD-OH]
23.3 | 18.4 |  |  | [Sar]ICSRSLP[Oic]I[Pen]IP[(R)‑Pyrrolidine‑3‑acetic acid]-OH (disulfide 3-11; N-terminus assumed; SMILES CC[C@H](C)[C@H](NC(=O)CNC)C(=O)N[C@H]1CSSC(C)(C)[C@@H](C(=O)N[C@H](C(=O)N2CCC[C@H]2C(=O)N2CC[C@H](CC(=O)O)C2)[C@@H](C)CC)NC(=O)[C@H]([C@@H](C)CC)NC(=O)[C@@H]2C[C@@H]3CCCC[C@@H]3N2C(=O)[C@@H]2CCCN2C(=O)[C@H](CC(C)C)NC(=O)[C@H](CO)NC(=O)[C@H](CCCNC(=N)N)NC(=O)[C@H](CO)NC1=O) [Example 530: ((N-Me)G)-IC+SRSLP-(Oic)-I-(Pen)+IP-((R)-Pyrrolidine-3-acetic acid)-OH]
24.2 | 17.6 |  |  | [Sar]ICSRSLP[Oic]I[Pen]IP[βPro(3R)]-OH (disulfide 3-11; N-terminus assumed; SMILES CC[C@H](C)[C@H](NC(=O)CNC)C(=O)N[C@H]1CSSC(C)(C)[C@@H](C(=O)N[C@H](C(=O)N2CCC[C@H]2C(=O)N2CC[C@@H](C(=O)O)C2)[C@@H](C)CC)NC(=O)[C@H]([C@@H](C)CC)NC(=O)[C@@H]2C[C@@H]3CCCC[C@@H]3N2C(=O)[C@@H]2CCCN2C(=O)[C@H](CC(C)C)NC(=O)[C@H](CO)NC(=O)[C@H](CCCNC(=N)N)NC(=O)[C@H](CO)NC1=O) [Example 532: ((N-Me)G)-IC+SRSLP-(Oic)-I-(Pen)+IP-((R)-Pyrrolidine-3-carboxylic acid)-OH]
 |  | 21 | 660 | ICSRS[tBuAla]PPI[Pen]IP-NH2 (disulfide 2-10; N-terminus assumed; SMILES CC[C@H](C)[C@H](N)C(=O)N[C@H]1CSSC(C)(C)[C@@H](C(=O)N[C@H](C(=O)N2CCC[C@H]2C(N)=O)[C@@H](C)CC)NC(=O)[C@H]([C@@H](C)CC)NC(=O)[C@@H]2CCCN2C(=O)[C@@H]2CCCN2C(=O)[C@H](CC(C)(C)C)NC(=O)[C@H](CO)NC(=O)[C@H](CCCNC(=N)N)NC(=O)[C@H](CO)NC1=O) [Example 316: IC+SRS-((tBu)A)-PPI-(Pen)+IP-NH2]
 |  | 22 | 210 | [Sar]ICSRSLPPICID-NH2 (disulfide 3-11; N-terminus assumed; SMILES CC[C@H](C)[C@H](NC(=O)CNC)C(=O)N[C@H]1CSSC[C@@H](C(=O)N[C@H](C(=O)N[C@@H](CC(=O)O)C(N)=O)[C@@H](C)CC)NC(=O)[C@H]([C@@H](C)CC)NC(=O)[C@@H]2CCCN2C(=O)[C@@H]2CCCN2C(=O)[C@H](CC(C)C)NC(=O)[C@H](CO)NC(=O)[C@H](CCCNC(=N)N)NC(=O)[C@H](CO)NC1=O) [Example 317: ((N-Me)G)-IC+SRSLPPIC+ID-NH2]

The remaining lines, values behind:

Binder | rat MASP1 IC50 [1] [nM] | rat MASP2 IC50 [2] [nM] | human MASP1 IC50 [3] [nM] | human MASP2 IC50 [4] [nM]
[Sar]ICSRS[tBuAla]P[X15]I[Pen]IPD-OH (disulfide 3-11; N-terminus assumed; SMILES CC[C@H](C)[C@H](NC(=O)CNC)C(=O)N[C@H]1CSSC(C)(C)[C@@H](C(=O)N[C@H](C(=O)N2CCC[C@H]2C(=O)N[C@@H](CC(=O)O)C(=O)O)[C@@H](C)CC)NC(=O)[C@H]([C@@H](C)CC)NC(=O)[C@@H]2CC3(CCCC3)CN2C(=O)[C@@H]2CCCN2C(=O)[C@H](CC(C)(C)C)NC(=O)[C@H](CO)NC(=O)[C@H](CCCNC(=N)N)NC(=O)[C@H](CO)NC1=O) | 26 | 74.1 |  | 
{Tetrahydro‑2H‑pyran‑3‑ylacetic acid}-ICSRSLP[Oic]I[Pen]IP-NH2 (disulfide 2-10) [Example 304: (Tetrahydro-2H-pyran-3-ylacetic acid)-IC+SRSLP-(Oic)-I-(Pen)+IP-NH2] |  |  | 19 | 27
X5-ICSRS[tBuAla]PPI[NMeC]I-NH2 (disulfide 2-10; SMILES CC[C@H](C)[C@H](NC(=O)[C@@H]1CSSC[C@H](NC(=O)[C@@H](NC(=O)CC2CCOCC2)[C@@H](C)CC)C(=O)N[C@@H](CO)C(=O)N[C@@H](CCCNC(=N)N)C(=O)N[C@@H](CO)C(=O)N[C@@H](CC(C)(C)C)C(=O)N2CCC[C@H]2C(=O)N2CCC[C@H]2C(=O)N[C@@H]([C@@H](C)CC)C(=O)N1C)C(N)=O) [Example 305: (Tetrahydropyranyl-4-acetic acid)-IC+SRS-((tBu)A)-PPI-((N-Me)C)+I-NH2] |  |  | 19 | 9.4
[βAla]ICSRSLPPICIPD-OH (disulfide 3-11; N-terminus assumed; SMILES CC[C@H](C)[C@H](NC(=O)CCN)C(=O)N[C@H]1CSSC[C@@H](C(=O)N[C@H](C(=O)N2CCC[C@H]2C(=O)N[C@@H](CC(=O)O)C(=O)O)[C@@H](C)CC)NC(=O)[C@H]([C@@H](C)CC)NC(=O)[C@@H]2CCCN2C(=O)[C@@H]2CCCN2C(=O)[C@H](CC(C)C)NC(=O)[C@H](CO)NC(=O)[C@H](CCCNC(=N)N)NC(=O)[C@H](CO)NC1=O) [Example 306: (beta-A)-IC+SRSLPPIC+IPD-OH] |  |  | 20 | 450
[Sar]I[Pen]SRS[tBuAla]PPICIP-NH2 (disulfide 3-11; N-terminus assumed; SMILES CC[C@H](C)[C@H](NC(=O)CNC)C(=O)N[C@@H]1C(=O)N[C@@H](CO)C(=O)N[C@@H](CCCNC(=N)N)C(=O)N[C@@H](CO)C(=O)N[C@@H](CC(C)(C)C)C(=O)N2CCC[C@H]2C(=O)N2CCC[C@H]2C(=O)N[C@@H]([C@@H](C)CC)C(=O)N[C@H](C(=O)N[C@H](C(=O)N2CCC[C@H]2C(N)=O)[C@@H](C)CC)CSSC1(C)C) [Example 310: ((N-Me)G)-I-(Pen)+SRS-((tBu)A)-PPI-C+IP-NH2] |  |  | 20 | 3000
[NPhGly]ICSRS[tBuAla]PPI[Pen]IP-NH2 (disulfide 3-11; N-terminus assumed; SMILES CC[C@H](C)[C@H](NC(=O)CNc1ccccc1)C(=O)N[C@H]1CSSC(C)(C)[C@@H](C(=O)N[C@H](C(=O)N2CCC[C@H]2C(N)=O)[C@@H](C)CC)NC(=O)[C@H]([C@@H](C)CC)NC(=O)[C@@H]2CCCN2C(=O)[C@@H]2CCCN2C(=O)[C@H](CC(C)(C)C)NC(=O)[C@H](CO)NC(=O)[C@H](CCCNC(=N)N)NC(=O)[C@H](CO)NC1=O) [Example 311: ((N-Ph)G)-IC+SRS-((tBu)A)-PPI-(Pen)+IP-NH2] |  |  | 20 | 49
[Sar]ICSRSLPPICIP[dD]-OH (disulfide 3-11; N-terminus assumed; SMILES CC[C@H](C)[C@H](NC(=O)CNC)C(=O)N[C@H]1CSSC[C@@H](C(=O)N[C@H](C(=O)N2CCC[C@H]2C(=O)N[C@H](CC(=O)O)C(=O)O)[C@@H](C)CC)NC(=O)[C@H]([C@@H](C)CC)NC(=O)[C@@H]2CCCN2C(=O)[C@@H]2CCCN2C(=O)[C@H](CC(C)C)NC(=O)[C@H](CO)NC(=O)[C@H](CCCNC(=N)N)NC(=O)[C@H](CO)NC1=O) [Example 312: ((N-Me)G)-IC+SRSLPPIC+IPd-OH] |  |  | 21 | 530
[Sar]ICSRSLPPICI[Abu]D-OH (disulfide 3-11; N-terminus assumed; SMILES CC[C@H](NC(=O)[C@@H](NC(=O)[C@@H]1CSSC[C@H](NC(=O)[C@@H](NC(=O)CNC)[C@@H](C)CC)C(=O)N[C@@H](CO)C(=O)N[C@@H](CCCNC(=N)N)C(=O)N[C@@H](CO)C(=O)N[C@@H](CC(C)C)C(=O)N2CCC[C@H]2C(=O)N2CCC[C@H]2C(=O)N[C@@H]([C@@H](C)CC)C(=O)N1)[C@@H](C)CC)C(=O)N[C@@H](CC(=O)O)C(=O)O) [Example 313: ((N-Me)G)-IC+SRSLPPIC+I-(Abu)-D-OH] |  |  | 21 | 250
AICSRS[Aad]PPI[NMeC]IPD-NH2 (disulfide 3-11; N-terminus assumed; SMILES CC[C@H](C)[C@H](NC(=O)[C@H](C)N)C(=O)N[C@H]1CSSC[C@@H](C(=O)N[C@H](C(=O)N2CCC[C@H]2C(=O)N[C@@H](CC(=O)O)C(N)=O)[C@@H](C)CC)N(C)C(=O)[C@H]([C@@H](C)CC)NC(=O)[C@@H]2CCCN2C(=O)[C@@H]2CCCN2C(=O)[C@H](CCCC(=O)O)NC(=O)[C@H](CO)NC(=O)[C@H](CCCNC(=N)N)NC(=O)[C@H](CO)NC1=O) [Example 314: AIC+SRS-(AAD)-PP-I-((N-Me)C)+IPD-NH2] |  |  | 21 | 260
